Assay results reported in US8525237 (University of California, dated 2013).
Ends that are not written are not given here.

Target: transferrin receptor (TfR) (UniProt P02786 89-760, limits assumed)
Experiment: phage-based ELISA (assay not given)

Sequence of transferrin receptor (TfR) (P02786 89-760 limits assumed): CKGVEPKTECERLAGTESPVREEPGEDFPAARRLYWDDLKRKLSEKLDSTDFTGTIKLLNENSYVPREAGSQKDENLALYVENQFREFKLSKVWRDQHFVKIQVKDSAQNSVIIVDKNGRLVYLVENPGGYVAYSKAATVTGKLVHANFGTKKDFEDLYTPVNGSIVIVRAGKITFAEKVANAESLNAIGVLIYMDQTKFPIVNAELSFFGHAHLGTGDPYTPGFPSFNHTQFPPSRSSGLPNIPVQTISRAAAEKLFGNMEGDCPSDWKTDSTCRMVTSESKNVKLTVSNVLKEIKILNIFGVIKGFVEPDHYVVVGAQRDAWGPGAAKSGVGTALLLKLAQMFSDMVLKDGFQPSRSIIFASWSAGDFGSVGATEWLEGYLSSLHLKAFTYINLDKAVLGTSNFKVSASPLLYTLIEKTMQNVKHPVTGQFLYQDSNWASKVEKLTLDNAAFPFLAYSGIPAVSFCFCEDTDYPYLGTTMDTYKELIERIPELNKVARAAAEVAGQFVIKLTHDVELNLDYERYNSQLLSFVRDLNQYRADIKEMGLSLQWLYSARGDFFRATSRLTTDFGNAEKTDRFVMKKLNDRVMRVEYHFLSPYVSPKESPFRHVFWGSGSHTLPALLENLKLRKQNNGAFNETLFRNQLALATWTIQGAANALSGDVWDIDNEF

B1: PSMA-3 peptide displayed on M13 phage (peptide, not shown: large carriers)
peptide: SECVEVFQNSCDW
modifications: not fully specified; cysteine pairing not given here
notes: Tested on phage in ELISA and as phage encapsulated in PEDOT nanowires; also called second generation peptide; PSMA-3 viruses
  binding result: no binding
